Data reported in patent US20060099671.

Test system: human plasminogen
Sequence (chain, as listed by the source): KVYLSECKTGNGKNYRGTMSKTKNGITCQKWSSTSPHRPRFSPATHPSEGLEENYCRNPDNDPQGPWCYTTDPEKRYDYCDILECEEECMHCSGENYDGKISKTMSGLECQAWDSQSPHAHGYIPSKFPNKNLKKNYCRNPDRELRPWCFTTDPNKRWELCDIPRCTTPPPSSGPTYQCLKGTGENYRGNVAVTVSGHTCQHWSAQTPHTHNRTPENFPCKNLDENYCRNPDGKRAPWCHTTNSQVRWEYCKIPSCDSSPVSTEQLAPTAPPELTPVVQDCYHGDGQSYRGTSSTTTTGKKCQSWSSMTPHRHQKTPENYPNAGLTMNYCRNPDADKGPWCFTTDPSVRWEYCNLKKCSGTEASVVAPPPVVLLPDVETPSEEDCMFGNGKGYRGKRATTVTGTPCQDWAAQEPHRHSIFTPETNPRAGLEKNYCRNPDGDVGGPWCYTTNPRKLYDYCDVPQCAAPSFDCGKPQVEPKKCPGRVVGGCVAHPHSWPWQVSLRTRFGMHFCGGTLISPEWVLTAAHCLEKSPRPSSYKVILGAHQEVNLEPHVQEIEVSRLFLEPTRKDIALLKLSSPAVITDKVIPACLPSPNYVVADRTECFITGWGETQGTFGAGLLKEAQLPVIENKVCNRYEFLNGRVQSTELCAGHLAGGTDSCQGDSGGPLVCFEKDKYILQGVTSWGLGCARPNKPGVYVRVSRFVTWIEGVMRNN

Substance	production of angiostatin (western blot)	conversion of plasminogen to plasmin (Coomassie-stained reduced polyacrylamide gels)
tissue-type plasminogen activator (t-PA)	incubation of plasminogen (0.2 µM) with u-PA (0.2 nM), t-PA (1.0 nM), or streptokinase (8.0 nM) with 100 µM N-acetyl-L-cysteine resulted in the production of angiostatin	–
urokinase-type plasminogen activator (u-PA)	incubation of plasminogen (0.2 µM) with u-PA (0.2 nM), t-PA (1.0 nM), or streptokinase (8.0 nM) with 100 µM N-acetyl-L-cysteine resulted in the production of angiostatin	The complete conversion of plasminogen to plasmin was confirmed
